Reference: IntAct's records for PubMed 20600852

B1: Inhibitor of nuclear factor kappa-B kinase subunit beta (Homo sapiens), O14920 (parent)
chain: MSWSPSLTTQTCGAWEMKERLGTGGFGNVIRWHNQETGEQIAIKQCRQELSPRNRERWCLEIQIMRRLTHPNVVAARDVPEGMQNLAPNDLPLLAMEYCQGGDLRKYLNQFENCCGLREGAILTLLSDIASALRYLHENRIIHRDLKPENIVLQQGEQRLIHKIIDLGYAKELDQGSLCTSFVGTLQYLAPELLEQQKYTVTVDYWSFGTLAFECITGFRPFLPNWQPVQWHSKVRQKSEVDIVVSEDLNGTVKFSSSLPYPNNLNSVLAERLEKWLQLMLMWHPRQRGTDPTYGPNGCFKALDDILNLKLVHILNMVTGTIHTYPVTEDESLQSLKARIQQDTGIPEEDQELLQEAGLALIPDKPATQCISDGKLNEGHTLDMDLVFLFDNSKITYETQISPRPQPESVSCILQEPKRNLAFFQLRKVWGQVWHSIQTLKEDCNRLQQGQRAAMMNLLRNNSCLSKMKNSMASMSQQLKAKLDFFKTSIQIDLEKYSEQTEFGITSDKLLLAWREMEQAVELCGRENEVKLLVERMMALQTDIVDLQRSPMGRKQGGTLDDLEEQARELYRRLREKPRDQRTEGDSQEMVRLLLQAIQSFEKKVRVIYTQLSKTVVCKQKALELLPKVEEVVSLMNEDEKTVVRLQEKRQKELWNLLKIACSKVRGPVSGSPDSMNASRLSQPGQLMSQPSTASNSLPEPAKKSEELVAEAHNLCTLLENAIQDTVREQDQSFTALDWSWLQTEEEEHSCLEQAS

Variants of: B1
Settings: with keap1_human KEAP1, Q14145
keap1_human KEAP1, Q14145, sequence (Q14145 whole entry): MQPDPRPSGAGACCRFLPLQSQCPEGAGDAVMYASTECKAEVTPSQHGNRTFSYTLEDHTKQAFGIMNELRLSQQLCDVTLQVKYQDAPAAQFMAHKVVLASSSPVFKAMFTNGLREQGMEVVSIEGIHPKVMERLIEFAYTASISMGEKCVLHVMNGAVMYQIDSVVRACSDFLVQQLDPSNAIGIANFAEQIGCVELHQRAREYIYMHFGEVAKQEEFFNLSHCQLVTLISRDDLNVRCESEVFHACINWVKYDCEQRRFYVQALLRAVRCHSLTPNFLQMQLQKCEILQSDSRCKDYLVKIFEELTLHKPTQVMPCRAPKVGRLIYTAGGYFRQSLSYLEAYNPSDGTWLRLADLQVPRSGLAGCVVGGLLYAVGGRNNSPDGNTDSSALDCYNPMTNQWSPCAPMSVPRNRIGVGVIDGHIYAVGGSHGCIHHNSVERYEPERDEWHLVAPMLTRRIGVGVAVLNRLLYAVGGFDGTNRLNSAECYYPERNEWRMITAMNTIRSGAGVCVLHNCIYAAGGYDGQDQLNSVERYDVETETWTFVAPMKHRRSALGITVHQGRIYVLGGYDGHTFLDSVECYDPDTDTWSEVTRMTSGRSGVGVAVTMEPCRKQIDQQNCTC

Variant | effect of a mutation on the interaction
E39G | decreasing interaction
